From patent US20180155451A1 (published 2018)

B1: GpH7-A5/GpH7-B3 variant H268_13S/GpL16-k0 (He Ab) (antibody, human IgG1, kappa)
heavy 1: not shown
heavy 2: not shown
light: DIVMTQSPLSLPVTPGEPASISCQASESLVHSNRNTYLHWYLQKPGQSPQLLIYKVSNRFSGVPDRFSGSGSGTDFTLKISRVEAEDVGVYYCSQNTHVPPTFGQGTKVEIERTVAAPSVFIFPPSDEQLKSGTASVVCLLNNFYPREAKVQWKVDNALQSGNSQESVTEQDSKDSTYSLSSTLTLSKADYEKHKVYACEVTHQGLSSPVTKSFNRGEC
notes: Anti-glypican-3 heterodimerized IgG1 antibody; the mutation stands in only one H chain (the GpH7-B3 chain); also called H268S in one H chain
B2: GpH7-A5/GpH7-B3 variant S267_15Y/GpL16-k0 (He Ab) (antibody, human IgG1, kappa)
heavy 1: not shown
heavy 2: not shown
light: B1 light
notes: Anti-glypican-3 heterodimerized IgG1 antibody; the mutation stands in only one H chain (the GpH7-B3 chain); also called S267Y in one H chain
B3: GpH7-A5/GpH7-B3 variant P331_03V/GpL16-k0 (antibody, human IgG1, kappa)
heavy 1: not shown
heavy 2: not shown
light: B1 light
notes: heterodimerized antibody, mutation in one H chain only; also called He Ab
B4: GpH7-A5/GpH7-B3 variant P238_15Y/GpL16-k0 (antibody, human IgG1, kappa)
heavy 1: not shown
heavy 2: not shown
light: B1 light
notes: as for B3
B5: GpH7-A5/GpH7-B3 variant S267_09D/GpL16-k0 (antibody, human IgG1, kappa)
heavy 1: not shown
heavy 2: not shown
light: B1 light
notes: as for B3
B6: GpH7-A5/GpH7-B3 variant S267_06M/GpL16-k0 (antibody, human IgG1, kappa)
heavy 1: not shown
heavy 2: not shown
light: B1 light
notes: as for B3
B7: GpH7-A5/GpH7-B3 variant P271_01G/GpL16-k0 (He Ab) (antibody, human IgG1, kappa)
heavy 1: not shown
heavy 2: not shown
light: B1 light
notes: Anti-glypican-3 heterodimerized IgG1 antibody; the mutation stands in only one H chain (the GpH7-B3 chain); also called P271G in one H chain
B8: GpH7-A5/GpH7-B3 variant S267_19Q/GpL16-k0 (He Ab) (antibody, human IgG1, kappa)
heavy 1: not shown
heavy 2: not shown
light: B1 light
notes: Anti-glypican-3 heterodimerized IgG1 antibody; the mutation stands in only one H chain (the GpH7-B3 chain); also called S267Q in one H chain
B9: GpH7-A5/GpH7-B3 variant H268_20W/GpL16-k0 (He Ab) (antibody, human IgG1, kappa)
heavy 1: not shown
heavy 2: not shown
light: B1 light
notes: Anti-glypican-3 heterodimerized IgG1 antibody; the mutation stands in only one H chain (the GpH7-B3 chain); also called H268W in one H chain
B10: GpH7-A5/GpH7-B3 variant S267_20W/GpL16-k0 (He Ab) (antibody, human IgG1, kappa)
heavy 1: not shown
heavy 2: not shown
light: B1 light
notes: Anti-glypican-3 heterodimerized IgG1 antibody; the mutation stands in only one H chain (the GpH7-B3 chain); also called S267W in one H chain
B11: GpH7-A5/GpH7-B3 variant S324_06M/GpL16-k0 (antibody, human IgG1, kappa)
heavy 1: not shown
heavy 2: not shown
light: B1 light
notes: as for B3
B12: GpH7-A5/GpH7-B3 variant H268_05P/GpL16-k0 (He Ab) (antibody, human IgG1, kappa)
heavy 1: not shown
heavy 2: not shown
light: B1 light
notes: Anti-glypican-3 heterodimerized IgG1 antibody; the mutation stands in only one H chain (the GpH7-B3 chain); also called H268P in one H chain
B13: GpH7-A5/GpH7-B3 variant P271_09D/GpL16-k0 (antibody, human IgG1, kappa)
heavy 1: not shown
heavy 2: not shown
light: B1 light
notes: as for B3
B14: GpH7-A5/GpH7-B3 variant P238_10E/GpL16-k0 (antibody, human IgG1, kappa)
heavy 1: not shown
heavy 2: not shown
light: B1 light
notes: as for B3
B15: GpH7-A5/GpH7-B3 variant P271_10E/GpL16-k0 (antibody, human IgG1, kappa)
heavy 1: not shown
heavy 2: not shown
light: B1 light
notes: as for B3
B16: GpH7-A5/GpH7-B3 variant S267_14T/GpL16-k0 (He Ab) (antibody, human IgG1, kappa)
heavy 1: not shown
heavy 2: not shown
light: B1 light
notes: Anti-glypican-3 heterodimerized IgG1 antibody; the mutation stands in only one H chain (the GpH7-B3 chain); also called S267T in one H chain
B17: GpH7-A5/GpH7-B3 variant S324_04F/GpL16-k0 (antibody, human IgG1, kappa)
heavy 1: not shown
heavy 2: not shown
light: B1 light
notes: as for B3

How the values were obtained:
[1] = target: T1, FcγRIIIa extracellular domain with C-terminal His tag (human, UniProt P08637 17-208); assay: SPR (Biacore); relative FcγRIIIa binding divided by relative FcγRIIb binding of the same antibody
T1 construct: extracellular domain; also called FcgRIIIa; 3a; not shown: His tag attached to the C terminus
T1 sequence (P08637 17-208): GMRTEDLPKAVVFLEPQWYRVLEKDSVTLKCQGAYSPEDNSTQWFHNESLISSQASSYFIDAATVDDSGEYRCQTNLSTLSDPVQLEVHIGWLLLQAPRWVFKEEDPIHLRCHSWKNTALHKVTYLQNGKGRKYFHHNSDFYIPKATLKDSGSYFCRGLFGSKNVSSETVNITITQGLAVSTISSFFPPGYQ
Procedure: (§1) Analysis of interaction between objective antibody and the FcγR was carried out using Biacore T100 (GE Healthcare). HBS-EP+ (GE Healthcare) was used as the running buffer, and the measurement temperature was set to 25° C. Chips produced by immobilizing the antigen peptide by the amine coupling method to a Series S Sencor Chip CM5 (GE Healthcare), or alternatively, chips produced by allowing preliminarily biotinylated antigen peptides to interact with and immobilize onto a Series S Sensor Chip SA (certified) (GE Healthcare) were used. Antibodies of interest were captured onto an antigen peptide-immobilized chip, and allowed to interact to each FcγR diluted with running buffer. To regenerate and repeatedly use the chip, the antibodies captured on the chip were washed off by reacting 10 mM glycine-HCl, pH 1.5.
(§2) The FcγR-binding activity of each antibody was assessed primarily using as an indicator the FcγR-binding activity and dissociation constant for FcγR.

[2] = target: T1, FcγRIIIa extracellular domain with …; assay: SPR (Biacore), antibody captured on antigen peptide chip, FcγR as analyte; bound amount against control heterodimerized antibody
Procedure: as §1, §2

[3] = target: T2, FcγRIIb extracellular domain with C-terminal His tag (human, UniProt P31994 43-217); assay: as above
T2 construct: extracellular domain; Expressed in FreeStyle293 cells and used as the analyte in Biacore; also called FcgRIIb; 2b; not shown: His tag attached to the C terminus
T2 sequence (looked up): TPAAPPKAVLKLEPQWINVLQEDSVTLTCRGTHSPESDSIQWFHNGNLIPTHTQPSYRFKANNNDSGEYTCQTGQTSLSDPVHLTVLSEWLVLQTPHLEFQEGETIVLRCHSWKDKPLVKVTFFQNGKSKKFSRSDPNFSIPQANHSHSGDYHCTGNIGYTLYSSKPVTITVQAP
Procedure: as §1, §2

[4] = target: T3, FcγRIIa R (human FcγRIIa, allotype R, Arg at position 131), extracellular domain with C-terminal His tag (human, UniProt P12318 34-217); assay: SPR (Biacore), relative binding vs GpH7-A5/GpH7-B3/GpL16-k0
T3 construct: extracellular domain; expressed in FreeStyle293 cells; analyte in Biacore; also called 2aR; FcgRIIa R
T3 sequence (looked up): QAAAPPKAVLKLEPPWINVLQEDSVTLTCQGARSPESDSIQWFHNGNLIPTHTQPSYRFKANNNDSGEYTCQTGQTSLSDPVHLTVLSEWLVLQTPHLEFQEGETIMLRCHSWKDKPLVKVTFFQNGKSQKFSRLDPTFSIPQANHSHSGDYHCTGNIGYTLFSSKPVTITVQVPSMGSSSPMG

Binder | He_3a/2b (IIIa/IIb) [1] | He/Con_3a (IIIa binding) [2] | He/Con_2b (IIb binding) [3] | He/Con_2aR [4]
B1 | 0.76 ratio of He/Con_3a to He/Con_2b | 122 relative binding activity, GpH7-A5/GpH7-B3/GpL16-k0 = 100 | 160 relative binding activity, GpH7-A5/GpH7-B3/GpL16-k0 = 100 | 
B2 | 0.31 ratio of He/Con_3a to He/Con_2b | 11.8 relative binding activity, GpH7-A5/GpH7-B3/GpL16-k0 = 100 | 37.9 relative binding activity, GpH7-A5/GpH7-B3/GpL16-k0 = 100 | 
B3 |  |  |  | 114 relative, control = 100
B4 |  |  |  | 156 relative, control = 100
B5 |  |  |  | 173 relative, control = 100
B6 |  |  |  | 122 relative, control = 100
B7 | 0.59 ratio of He/Con_3a to He/Con_2b | 113 relative binding activity, GpH7-A5/GpH7-B3/GpL16-k0 = 100 | 193 relative binding activity, GpH7-A5/GpH7-B3/GpL16-k0 = 100 | 
B8 | 0.3 ratio of He/Con_3a to He/Con_2b | 65 relative binding activity, GpH7-A5/GpH7-B3/GpL16-k0 = 100 | 218 relative binding activity, GpH7-A5/GpH7-B3/GpL16-k0 = 100 | 
B9 | 0.74 ratio of He/Con_3a to He/Con_2b | 82.8 relative binding activity, GpH7-A5/GpH7-B3/GpL16-k0 = 100 | 111 relative binding activity, GpH7-A5/GpH7-B3/GpL16-k0 = 100 | 
B10 | 0.37 ratio of He/Con_3a to He/Con_2b | 21.5 relative binding activity, GpH7-A5/GpH7-B3/GpL16-k0 = 100 | 57.2 relative binding activity, GpH7-A5/GpH7-B3/GpL16-k0 = 100 | 
B11 |  |  |  | 123 relative, control = 100
B12 | 0.66 ratio of He/Con_3a to He/Con_2b | 76.4 relative binding activity, GpH7-A5/GpH7-B3/GpL16-k0 = 100 | 116 relative binding activity, GpH7-A5/GpH7-B3/GpL16-k0 = 100 | 
B13 |  |  |  | 110 relative, control = 100
B14 |  |  |  | 151 relative, control = 100
B15 |  |  |  | 103 relative, control = 100
B16 | 0.44 ratio of He/Con_3a to He/Con_2b | 45.6 relative binding activity, GpH7-A5/GpH7-B3/GpL16-k0 = 100 | 104 relative binding activity, GpH7-A5/GpH7-B3/GpL16-k0 = 100 | 
B17 |  |  |  | 104 relative, control = 100
